Measured values from patent US9803013B2, “Biological materials and uses thereof” (BioInvent International AB, priority 2005, dated 2017).

Tests used:
PBMC = PBMC cytokine release; format: cell-based, human; conditions: immobilized (air-dried or wet coated) or in solution
Description: (FIG. 23D) Antibody-induced PBMC cytokine release. PBMC cytokine release was measured by ELISA of cell culture supernatants for IL-1β, IL-2, IL-6, IL-8, IFN-γ and TNF-α following incubation of cells in plates coated with hyper cross-linked (air-dried “A” or wet coated “W”) BI-505, isotype control, or positive control Okt-3 antibody.
(FIG. 23E) Antibody-induced cytokine release in LPS-primed PBMC. PBMC were incubated with titrated LPS and concentrations yielding submaximal cellular release of IL-1β. (100 pg/ml), IL-6 (10 pg/ml), IL-8 (10 pg/ml), and TNF-α (10 pg/ml) were determined (arrows, left panel), and used in subsequent experiments assessing antibody (BI-505 or ctrl IgG) effects on cytokine release from LPS-primed PBMC (right panel). Treatment with 100 ng/ml LPS served as positive control for robust cytokine release.
Cytokine release and T cell proliferation are thought to be common causes of mild and severe adverse reactions to antibody therapy. In order to further investigate any undesirable effects of BI-505 on ICAM-1 expressing immune cells, we therefore assessed putative effects of BI-505 on peripheral blood mononuclear cell (PBMC) cytokine release and T cell proliferation. […]
For cell culture cytokine quantifications, cells were seeded in 96-well cell culture wet and air-dried coated plates at a density of 1×10^6 cells/mL and cultured with antibodies for 24 hr. […]

[1] = system: panel of ICAM-1-expressing tumor cell lines; assay: CDC; format: cell-based; conditions: human serum
Description: Target cells were harvested as described above (under ADCC heading) and incubated with antibodies at 5 μg/mL for 60 min on ice and then washed. Human serum, normal or heat-inactivated (Sigma, Sweden), was added to tubes and the samples were incubated for 2 hr at 37° C. After completion of incubation, ToPo-Pro-3 (Invitrogen) was added at a final concentration of 0.3 μM and cells were analyzed for membrane permeabilization using flow cytometry.

ICAM-2 = target: T1, ICAM-2 (Homo sapiens, UniProt P13598); assay: Binding to recombinant ICAM family protein
T1 sequence (P13598 25-275): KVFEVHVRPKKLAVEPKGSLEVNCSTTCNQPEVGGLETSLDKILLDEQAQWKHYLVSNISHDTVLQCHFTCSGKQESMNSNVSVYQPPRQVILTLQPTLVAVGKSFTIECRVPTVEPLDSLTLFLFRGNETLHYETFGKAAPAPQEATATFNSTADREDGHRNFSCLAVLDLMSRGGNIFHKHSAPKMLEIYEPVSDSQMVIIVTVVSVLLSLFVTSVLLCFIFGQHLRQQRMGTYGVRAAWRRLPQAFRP

ICAM-1 = ICAM-1 (Homo sapiens, UniProt P05362); assay: Radioiodinated IgG B11 binding to Ramos cells, Rosenthal-Scatchard analysis; design: endogenous in cells; host or cells: Ramos B lymphoma cells
Chain of ICAM-1 (P05362 28-532): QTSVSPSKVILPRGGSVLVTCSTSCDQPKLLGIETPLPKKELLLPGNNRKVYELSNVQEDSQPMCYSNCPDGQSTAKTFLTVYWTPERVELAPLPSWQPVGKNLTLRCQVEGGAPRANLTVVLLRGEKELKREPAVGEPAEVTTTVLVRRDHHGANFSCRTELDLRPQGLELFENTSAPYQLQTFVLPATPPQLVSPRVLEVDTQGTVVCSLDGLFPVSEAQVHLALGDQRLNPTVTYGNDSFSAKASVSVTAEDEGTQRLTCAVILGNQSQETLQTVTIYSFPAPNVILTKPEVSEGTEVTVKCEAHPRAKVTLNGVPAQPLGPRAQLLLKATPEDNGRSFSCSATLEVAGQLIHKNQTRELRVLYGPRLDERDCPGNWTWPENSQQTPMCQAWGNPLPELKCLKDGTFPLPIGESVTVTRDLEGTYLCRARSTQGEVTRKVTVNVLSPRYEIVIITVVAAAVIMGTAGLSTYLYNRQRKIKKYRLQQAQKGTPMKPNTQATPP
Description: Iodination of 1 mg/ml of IgG1 B1 or IgG1 B11 proteins with [^125I] NaI was performed in PBS for 10 min using Iodogen pre-coated iodination tubes (Pierce). Free [^125I] NaI was removed by desalting on PD-10 columns (Amersham Biosciences), yielding specific radioactivities in the range of 1000-1600 cpm per ng protein. [^125I] IgG1 B1 and [^125I] IgG1 B11 was used for determination of antibody affinities.
Radioiodinated IgG B1 or IgG B11 was incubated with B lymphoma cells in DPBS-B-hIgG (DPBS-B containing 0.2 mg/ml human IgG) for 2 h on ice with intermittent mixing. Non-specific binding was determined in the presence of 0.2 mg/ml unlabelled IgG B1 or IgG B11 protein, as appropriate. […]
Cells were loaded on top 40% v/v Ficoll/DPBS-B cushions in individual tubes and were centrifuged at 400×g for 6 min at 4° C. […] Cell pellets and cell supernatants were isolated and analysed separately for ^125I-IgG protein content in a gamma counter, following cutting of the tubes in half.
Antibody affinity constants (Kd values) and epitope numbers per cell were determined from Scatchard plot analysis according to Rosenthal et al. (Anal. Biochem. (1967) 20:525-532); Bylund and Yamamura (Methods in Neurotransmitter Analysed, New York: Raven Press Ltd., 1990); and Marquardt (J. Soc. Indust. Appl. Math. (1963) 11:431-441), as previously described (Brix et al., J. Clin. Invest. (1998) 102:283-293). […]

B1: B11: fully human IgG1 antibody specific for ICAM-1; VH and VL sequences of FIG. 10 (SEQ ID NOs. 6 and 8) (antibody, listed as Homo sapiens, V domains shown)
VH: EVQLLESGGGLVQPGGSLRLSCAASGFTFSNAWMSWVRQAPGKGLEWVAFIWYDGSNKYYADSVKGRFTISRDNSKNTLYLQMNSLRAEDTAVYYCARYSGWYFDYWGQGTLVTVSS
VL: QSVLTQPPSASGTPGQRVTISCTGSSSNIGAGYDVHWYQQLPGTAPKLLIYDNNNRPSGVPDRFSGSKSGTSASLAISGLRSEDEADYYCQSYDSSLSAWLFGGGTKLTVLG
- PBMC cytokine release (PBMC): did not, however, induce PBMC cytokine release
- CDC [1]: did not induce CDC
- binding to recombinant protein (ICAM-2): not to ICAM-2 or ICAM-3
- functional binding sites (receptors) per cell (ICAM-1; Rosenthal-Scatchard plot): 47,400
- concentration at which saturable specific binding is reached (ICAM-1; radioiodinated IgG): ~1 nM
